# ± gives the standard deviation of the averaged measurements.
# Assays:
# [1] = melting temperature (DSF); higher = more thermostable
# Method in brief: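 After expression in E. coli C41(DE3), the candidate enzymes were bound to nickel beads and released with SUMO protease. Their melting temperature was found by differential scanning fluorimetry with Sypro Orange on a Bio-Rad CFX96. Each sealed PCR plate well held 45 μL enzyme (0 to 0.3 mg/mL) plus 5 μL 5X dye, and fluorescence was read for 250 cycles from 25 °C at 0.3 °C per cycle (ramp 0.3 °C/s).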
# [2] = PET hydrolysis, aromatic products released after 48 h (umol product/mg enzyme); higher = more PET depolymerization activity
# Method in brief: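 Sealed plates containing 3.5 mg PET (amorphous film or crystalline powder), 450 μL buffer and 5 μg (50 μL) tagless candidate enzyme were held 48 h at 40 or 60 °C with no shaking. Supernatants were then read at 260 and 280 nm against buffer blanks. The aromatic product detected this way, per mg enzyme, defines PET hydrolysis activity.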
# [3] = purified protein yield per well (BCA); higher = higher soluble expression
# Method in brief: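 Expression was done in E. coli C41(DE3), using 2 mL autoinduction cultures with 100 µg/mL kanamycin incubated at 37 °C for 2 h and at 18 °C for 40 h. Protein was purified on Ni-charged magnetic beads and released by SUMO protease cleavage. Yield of purified protein per well was measured with the Pierce Rapid Gold BCA kit; values below 25 ug (0.1 mg/mL) are below detection.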
# [4] = substrate: aFilm, 40 °C, pH 4.5
# [5] = substrate: aFilm, 40 °C, pH 5.5
# [6] = substrate: aFilm, 40 °C, pH 6.5
# [7] = substrate: aFilm, 40 °C, pH 7.5
# [8] = substrate: aFilm, 60 °C, pH 4.5
# [9] = substrate: aFilm, 60 °C, pH 5.5
# [10] = substrate: aFilm, 60 °C, pH 6.5
# [11] = substrate: aFilm, 60 °C, pH 7.5
# [12] = substrate: cryPow, 40 °C, pH 4.5
# [13] = substrate: cryPow, 40 °C, pH 5.5
# [14] = substrate: cryPow, 40 °C, pH 6.5
# [15] = substrate: cryPow, 40 °C, pH 7.5
# [16] = substrate: cryPow, 60 °C, pH 4.5
# [17] = substrate: cryPow, 60 °C, pH 5.5
# [18] = substrate: cryPow, 60 °C, pH 6.5
# [19] = substrate: cryPow, 60 °C, pH 7.5
# [20] = substrate: cryPow, 40 °C, pH 8.5
Sequence,melting temperature [1],"PET hydrolysis [2, 4]","PET hydrolysis [2, 5]","PET hydrolysis [2, 6]","PET hydrolysis [2, 7]","PET hydrolysis [2, 8]","PET hydrolysis [2, 9]","PET hydrolysis [2, 10]","PET hydrolysis [2, 11]","PET hydrolysis [2, 12]","PET hydrolysis [2, 13]","PET hydrolysis [2, 14]","PET hydrolysis [2, 15]","PET hydrolysis [2, 16]","PET hydrolysis [2, 17]","PET hydrolysis [2, 18]","PET hydrolysis [2, 19]",purified protein yield per well [3],"PET hydrolysis ([2]; substrate: aFilm, 40 °C, pH 8.5)","PET hydrolysis ([2]; substrate: aFilm, 60 °C, pH 8.5)","PET hydrolysis [2, 20]","PET hydrolysis ([2]; substrate: cryPow, 60 °C, pH 8.5)"
ADNPYERGPDPTPASVAAPNGPFATAQVSVPPGYGFNGGMIYYPTDTSQGTFGAIAISPGYTALFSVELAWMGPRLASQGFVVIGIETNDRNDFDTARGTQLLAALDYLTGQSSVRSRVDPNRLAVAGHSMGGGGAFSAALRRPALKAAVGFTPFSPSQNLTNMQVPALLYSGQNDTVTTPSSVSNLYNGLPSTTEGAYLEAAGLDHSFPTRPNTLLMRTMIPWVKIFLDNDLRYTQFLCPLMDSSGVLQYRNTCPLVPPGLPSPSPTTAPPTTAPPTTAPPTTAPPTTAPPTTAPPTTAPPAGACTATYQTIGSWPGGFQGEVTVRAGNSAINGWTVGWSLGSGQSITQIWNGTLSTSGSSVSVRNVSYNGSLPAAGTVTFGFLGSGSPSTPSTVTCTSP [ESM012],60.7 C,< 3,< 3,< 3,< 3,< 3,< 3,< 3,< 3,< 3,9.5 ± 3.5,21.5 ± 3.5,21.5 ± 0.71,< 3,< 3,< 3,< 3,519 µg,–,–,–,–
ADNPYQRGPDPTPASVSANRGTFATAQISVPAGNGFGGGVIYHPTDTSQGTFGAIAVVPGYTATWAAEGAWMGHWLASFGFVVIGIDTNSRNDWDTARGTQLLAALDYLTQRSPVRDRVDANRTAVMGHSMGGGGAMHAALQRPSLKAAIGLAPFSPSQNLTTTRVPTMLLAGQSDTTTTPASILNLYNGIPAATEKAYLELTGAGHGFPTSNNPTMMRNVIPWLKIFVDSDTRYTQFLCSLSNWDGIRAYQSTCPLVPSPVPTTTSTTSTTTTISTTTTTPAPGDACSATYRTTNSWPGGYQAEVTVTAGNTAVNGWNVQWTLGSGQTVTQVWNGTLNVSGSTASVRNASYNGSLQANTSTTFGFIGGGTPPTSSLSCTSP [ESM035],57.4 C,< 3,< 3,< 3,< 3,< 3,< 3,< 3,< 3,< 3,< 3,7 ± 2.8,23.5 ± 0.71,< 3,< 3,< 3,< 3,510 µg,–,–,–,–
ASYQRGPDPTVQSVAANRGTFATAELTVPRGFGFNGGKIYYPTDTSQGTWGAIAAVPGYTASWAAEGAWMGPWLASFGFVVIGIDTNSPTDYDTARGTQLLAALDYLTGQSAVRDRVDPNRLAVLGHSMGGGGAISAAMRRPSLKAAVPLAPASFSQNLSNVRVPTLIMGARDDGTITPSSIDGLWSSKPATTQGARVELASGGHGFPTWGNSQVTRREIPWLKIFLDNDNRYAQFLCPSLADSTGVSRYISQCPYGSTGQPSSPPVSSPPAAGGPVRAVGAGKCLDVPNASQTNDTQLAIWDCNGGSNQQWTYTSGKQLRVYGGKCLDASGHGMSNGTRVIIWDCGGGANQQWNVNANGTITGVESGLCLDVTGAATANGALVDLWACNNGGNQQWRLG [ESM097],58.3 C,–,–,–,–,–,–,–,–,< 3,< 3,< 3,4,–,–,–,–,81.7 µg,–,–,–,–
ADNPYERGPAPTEASVEAPRGPYAVSETTVSPLAVTGFGGGTVYYPTSTADGTFGAIAVSPGYTGTQSSIAWLGPRLASQGFVVFTIDTLTTLDQPDSRGRQLLAALDYLTQKSSVRGRIDSTRLGVMGHSMGGGGSLEAAKSRPSLQAAIPLTPWNLDKTWPEVATPTLIFGADGDTIAPVATHAEPFYTSLPASLDRAYLELNGATHFTPNTSNTTIAKYSIAWLKRFIDDDTRYEQFLCPLPRPGLTIEEYRGNCPHTS [TEP117],40 C,< 3,< 3,< 3,< 3,< 3,< 3,< 3,< 3,< 3,< 3,< 3,< 3,< 3,< 3,< 3,< 3,202 µg,–,–,–,–
LFDNNGNKKQAYDATLSALNAGGTPVSPSPSVSPTAGPSPSTSPSPSPPPGDNPYQRGPDPTRDSVAANRGTFATAEMSVSPGNGFNGGSIYYPTDTSQGTFGAVAIVPGYTARFADEEAWMGHWLASFGFVVIGVETNSTNDFDTARGTQLLAALDWLTQSSPVRDRIDASRQSVIGHSMGGGGALHAAGNRSSLKAAVGLTPFMPSGTPANNQVPTLMIAGTNDTVVAPSYVTDLYNALPSSTERAYMEFVGADHLFPTRPNNLEMRILIPWLKTFVDSDSRYTQFLCPLMDSSGIAGYRNSCPLLPDQPTPPPTPTPSPTTPTPDPTTPGPGTCTATMSTGQVWGDRYNTSVTVTGTSNWTVVVAITPPQRISATWNGNPTWDSSGNVMTIRANGNGNVFGFTTMFNGNSWARPQIRSCTAG [DP081],57.1 C,–,< 3,< 3,< 3,–,< 3,< 3,< 3,–,7.5 ± 0.71,21 ± 2.8,14.5 ± 0.71,–,< 3,< 3,< 3,244 µg,< 3,< 3,12.5 ± 2.1,< 3
AENPYERGPAPTTASIEALRGPFATAETTVSSLSVRGFGGGTIHYPTSTAEGTFGAVAVAPGYTASQSSLSWLGPRLASQGFVVFVIDTNSRYDQPASRGDQLLAALDYLTTSSSVRGRIDASRLGVMGHSMGGGGALEATKDRPSLQASIPLTPWNTTKTWSTVRTPTLVVGAEDDSVAPVRTHAEPFYEGLPSTLDKAYLELAGASHFAPNSSNTTIAKYSIAWLKRFVDDDTRYEQFLCPAPRGTAISEYRDTCPHP [TEP110],47.2 C,–,–,–,–,–,–,–,–,< 3,< 3,< 3,< 3,–,–,–,–,48.9 µg,–,–,–,–
DDGYQRGPDPTEESIEAPRGTFEIGMAVVTRASADGFGGGTVYYPTDTSEGTFGAVAVSPGYSSSQAAIAWLGPRLASQGFVVFTIDTLSTSDSPTRRGDQVLAALSFLGRTELADRIDPDRLAVMGHSMGGGGSLEAAKDYPALQAIVPMTPWSVDKTFPEVTAPTLVIGAEDDVVARPRSHAEPIYESLPADGDKAYLELRDASHSAPSAPNTLIARYSLSWLKRYVDDDERYQQFLCPPPAVDDEISEYRSTCA [DP089],52 C,–,–,–,–,–,–,–,–,–,< 3,4,19,–,–,–,–,< 25 µg,–,–,20,–
MPPPPPPPPPVQTVTVEPGYGFGGGTIYYPQESTGRLPVVAAVPGFTETQEAVAWYGPLLARRGNIVITIDTISPTNAPKTRADQALAAIDYVVTQSAVSDIADASRTAVMGHSMGGGASLFAALKRPTLKAIVPLAPWARTTDFSGVAVPTLIVGCENDGIAAVGTYAEPFYESIPATTPKAYLEMAGGNHYCTNSEDPVIAGYVSAWTDRFLKGDTTASSRLCPPSPVGPISEYRSNCPY [TEP189],67 C,–,–,–,–,–,–,–,–,< 3,8,56,62,< 3,< 3,23,22,153 µg,–,–,–,–
ADNPYERGPAPTTSSIEASRGPFATASTTVSSLVSGFGGGTIYYPTSTAEGTFGAVAISPGYTGTQSSIAWLGPRIASQGFVVITIDTNTIYDQPDSRASQLLAALDYLTQSSSVRTRIDATRLGVMGHSMGGGGTLRAAESRPALQAAIPLTAWHTDKTWGNVRVPTLVIGAENDSIAPVATHSEPFYTSLPSTLDKAYLELNAADHFAPNSSNTTIAKYSISWLKRFIDNDTRYEQFLCPPPSRSLLIEEYRDTCPHS [TEP108],42.1 C,–,–,–,–,–,–,–,–,< 3,< 3,< 3,< 3,–,–,–,–,53.3 µg,–,–,–,–
APPARVAALATTAYQRGPAPTLSGVRAALGPFSYSTASVSAAATGYTFGGGTVYYPDDTSQGTFGGIAVTPGYTGTEGSIAWLGPRLASQGFVVITIATKSLYDQPTARGQQLLAALDYLKTYSPAAVRQRLDPQRLAVSGHSMGGGGALYAVWSRPSLKAAVPLAPYHTIKNWSAITVPTLIEAGTADTVTPVGTFAEPIYQSLTGASERAYAEVAGANHLTFTAENPLIGGLEVAWMKRFVDDDARYDQFLCPAPTDPGLTEYRDSCPTS [TEP101],56.5 C,< 3,< 3,< 3,< 3,< 3,< 3,< 3,< 3,< 3,9 ± 1.4,18.5 ± 0.71,24 ± 2.8,< 3,3,7.5 ± 0.71,7.5 ± 0.71,377 µg,–,–,–,–
ADNPYERGPDPTESSIEASRGPFAVSQTTVSSLAVTGFGGGTIYYPTDTSQGTFGAVAISPGYTADQSSIAWIGPRLASQGFVVFTIDTITRYDQPASRGDQLLAALDYLTQRSSVRGRIDSSRLGVAGHSMGGGGTLEAAEERPSLQAAVPLAPWNLQKNFSGVRVPTFIIGGESDTVAPVATHSEPFYTSLPSTLDKAYMELNNASHFFPNTPNTTMAKYMISWFKRFIDDDTRYDQFLCPNPSGLAIEEYRSTCPY [TEP089],44.2 C,–,–,–,–,–,–,–,–,< 3,< 3,< 3,< 3,< 3,< 3,< 3,< 3,105 µg,–,–,–,–
ADNPYQRGPNPTVASVAATRGTFATAQTSVPAGNGFGGGVIYYPTDTSQGTFGGVAIVPGYSALFANEEAWMGPWLASFGFVVIGIETNSRTDSADARGTQLLAALDYLTQRSSVRDRVDPNRLSVVGHSAGGAGVLSAILRRPSLKAGIGLAPGSPVGDYSLSNDRVPTMFISGQRDTTVTQSYLNGLYTTIPASTPSAWVEITGVDHLFATRANTTEMRVLIPWLKIWVDNDTRYTQFLCPLADSTGISMYRNKCPYVPPGGSSPSPSPSPSSSPSRFPSPSPSPSPSQSPSQSPSASPSPPPPGACVAEYRTVNSWPGGYQGEVTVTAGGSAVNGWTVRWTLGSGQTITQLWNGTLSTSGSAVTVKNASFNGSIPASGSATFGFLATGTPSTPSLTCTSP [ESM015],60.7 C,–,–,–,–,–,–,–,–,< 3,< 3,< 3,< 3,< 3,< 3,< 3,< 3,540 µg,–,–,–,–

# Reference: the supplement of paper PMC12455559
